Data published in the supplement of paper PMC10266784.

B1: library; numbered along this chain (parent)
chain: MAAAAAAAAEQQSSNGPVKKSMREKAVERRSVNKEHNSNFKAGYIPIDEDRLHKTGLRGRKGNLAICVIILLFILAVINLIITLVIWAVIRIGPNGCDSMEFHESGLLRFKQVSDMGVIHPLYKSTVGGRRNENLVITGNNQPIVFQQGTTKLSVENNKTSITSDIGMQFFDPRTQNILFSTDYETHEFHLPSGVKSLNVQKASTERITSNATSDLNIKVDGRAIVRGNEGVFIMGKTIEFHMGGNMELKAENSIILNGSVMVSTTRLPSSSSGDQLGSGDWVRYKLCMCADGTLFKVQVTSQNMGCQISDNPCGNTH

Variants of: B1
Assay: SGCB cell-surface expression functional score (HA stain, bin4 vs bin1, normalised to synonymous) (log10 ratio); higher = more cell-surface SGCB (functional)
Procedure: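 Deep mutational scan of full-length human SGCB (YFP-SGCB-HA, NNN codon sublibraries A-F) delivered by lentivirus at low MOI into ADG-HEK293 cells stably expressing SGCA, SGCD and SGCG. YFP-positive cells were stained for surface HA on unpermeabilized cells and FACS-sorted into bins. The functional score is log10(frequency in high bin 4 / frequency in low bin 1), normalised per chunk so that synonymous variants have mean 0 and SD 0.5. Scores are the median over codons and over duplicate biological replicates; scores below -0.5 are called non-functional. Scale: negative means deleterious.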

In order of falling “SGCB cell-surface expression functional score (log10)” value:
1. MAAAAAAAAEQQSSNGPVKKSMREKAVERRSVNKEHNSNFKAGYIPIDEDRLHKTGLRGRKGNLAICVIILLFILAVINLIITLVIWAVIRIGPNGCDSMEFHESGLLRFCQVSDMGVIHPLYKSTVGGRRNENLVITGNNQPIVFQQGTTKLSVENNKTSITSDIGMQFFDPRTQNILFSTDYETHEFHLPSGVKSLNVQKASTERITSNATSDLNIKVDGRAIVRGNEGVFIMGKTIEFHMGGNMELKAENSIILNGSVMVSTTRLPSSSSGDQLGSGDWVRYKLCMCADGTLFKVQVTSQNMGCQISDNPCGNTH [K111C]  0.01
2. MAAAAAAAAEQQSSNGPVKKSMREKAVERRSVNKEHNSNFKAGYIPIDEDRLHKTGLRGRKGNLAICVIILLFILAVINLIITLVIWAVIRIGPNGCDSMEFHESGLLRHKQVSDMGVIHPLYKSTVGGRRNENLVITGNNQPIVFQQGTTKLSVENNKTSITSDIGMQFFDPRTQNILFSTDYETHEFHLPSGVKSLNVQKASTERITSNATSDLNIKVDGRAIVRGNEGVFIMGKTIEFHMGGNMELKAENSIILNGSVMVSTTRLPSSSSGDQLGSGDWVRYKLCMCADGTLFKVQVTSQNMGCQISDNPCGNTH [F110H]  -0.19
3. MAAAAAAAAEQQSSNGPVKKSMREKAVERRSVNKEHNSNFKAGYIPIDEDRLHKTGLRGRKGNLAICVIILLFILAVINLIITLVIWAVIRIGPNGCDSMEFHESGLLRIKQVSDMGVIHPLYKSTVGGRRNENLVITGNNQPIVFQQGTTKLSVENNKTSITSDIGMQFFDPRTQNILFSTDYETHEFHLPSGVKSLNVQKASTERITSNATSDLNIKVDGRAIVRGNEGVFIMGKTIEFHMGGNMELKAENSIILNGSVMVSTTRLPSSSSGDQLGSGDWVRYKLCMCADGTLFKVQVTSQNMGCQISDNPCGNTH [F110I]  -0.31
4. MAAAAAAAAEQQSSNGPVKKSMREKAVERRSVNKEHNSNFKAGYIPIDEDRLHKTGLRGRKGNLAICVIILLFILAVINLIITLVIWAVIRIGPNGCDSMEFHESGLLRVKQVSDMGVIHPLYKSTVGGRRNENLVITGNNQPIVFQQGTTKLSVENNKTSITSDIGMQFFDPRTQNILFSTDYETHEFHLPSGVKSLNVQKASTERITSNATSDLNIKVDGRAIVRGNEGVFIMGKTIEFHMGGNMELKAENSIILNGSVMVSTTRLPSSSSGDQLGSGDWVRYKLCMCADGTLFKVQVTSQNMGCQISDNPCGNTH [F110V]  -0.47
5. MAAAAAAAAEQQSSNGPVKKSMREKAVERRSVNKEHNSNFKAGYIPIDEDRLHKTGLRGRKGNLAICVIILLFILAVINLIITLVIWAVIRIGPNGCDSMEFHESGLLRLKQVSDMGVIHPLYKSTVGGRRNENLVITGNNQPIVFQQGTTKLSVENNKTSITSDIGMQFFDPRTQNILFSTDYETHEFHLPSGVKSLNVQKASTERITSNATSDLNIKVDGRAIVRGNEGVFIMGKTIEFHMGGNMELKAENSIILNGSVMVSTTRLPSSSSGDQLGSGDWVRYKLCMCADGTLFKVQVTSQNMGCQISDNPCGNTH [F110L]  -0.53
6. MAAAAAAAAEQQSSNGPVKKSMREKAVERRSVNKEHNSNFKAGYIPIDEDRLHKTGLRGRKGNLAICVIILLFILAVINLIITLVIWAVIRIGPNGCDSMEFHESGLLRKKQVSDMGVIHPLYKSTVGGRRNENLVITGNNQPIVFQQGTTKLSVENNKTSITSDIGMQFFDPRTQNILFSTDYETHEFHLPSGVKSLNVQKASTERITSNATSDLNIKVDGRAIVRGNEGVFIMGKTIEFHMGGNMELKAENSIILNGSVMVSTTRLPSSSSGDQLGSGDWVRYKLCMCADGTLFKVQVTSQNMGCQISDNPCGNTH [F110K]  -0.57
7. MAAAAAAAAEQQSSNGPVKKSMREKAVERRSVNKEHNSNFKAGYIPIDEDRLHKTGLRGRKGNLAICVIILLFILAVINLIITLVIWAVIRIGPNGCDSMEFHESGLLRFEQVSDMGVIHPLYKSTVGGRRNENLVITGNNQPIVFQQGTTKLSVENNKTSITSDIGMQFFDPRTQNILFSTDYETHEFHLPSGVKSLNVQKASTERITSNATSDLNIKVDGRAIVRGNEGVFIMGKTIEFHMGGNMELKAENSIILNGSVMVSTTRLPSSSSGDQLGSGDWVRYKLCMCADGTLFKVQVTSQNMGCQISDNPCGNTH [K111E]  -0.76
8. MAAAAAAAAEQQSSNGPVKKSMREKAVERRSVNKEHNSNFKAGYIPIDEDRLHKTGLRGRKGNLAICVIILLFILAVINLIITLVIWAVIRIGPNGCDSMEFHESGLLRFDQVSDMGVIHPLYKSTVGGRRNENLVITGNNQPIVFQQGTTKLSVENNKTSITSDIGMQFFDPRTQNILFSTDYETHEFHLPSGVKSLNVQKASTERITSNATSDLNIKVDGRAIVRGNEGVFIMGKTIEFHMGGNMELKAENSIILNGSVMVSTTRLPSSSSGDQLGSGDWVRYKLCMCADGTLFKVQVTSQNMGCQISDNPCGNTH [K111D]  -0.84
9. MAAAAAAAAEQQSSNGPVKKSMREKAVERRSVNKEHNSNFKAGYIPIDEDRLHKTGLRGRKGNLAICVIILLFILAVINLIITLVIWAVIRIGPNGCDSMEFHESGLLRMKQVSDMGVIHPLYKSTVGGRRNENLVITGNNQPIVFQQGTTKLSVENNKTSITSDIGMQFFDPRTQNILFSTDYETHEFHLPSGVKSLNVQKASTERITSNATSDLNIKVDGRAIVRGNEGVFIMGKTIEFHMGGNMELKAENSIILNGSVMVSTTRLPSSSSGDQLGSGDWVRYKLCMCADGTLFKVQVTSQNMGCQISDNPCGNTH [F110M]  -0.98
10. MAAAAAAAAEQQSSNGPVKKSMREKAVERRSVNKEHNSNFKAGYIPIDEDRLHKTGLRGRKGNLAICVIILLFILAVINLIITLVIWAVIRIGPNGCDSMEFHESGLLRYKQVSDMGVIHPLYKSTVGGRRNENLVITGNNQPIVFQQGTTKLSVENNKTSITSDIGMQFFDPRTQNILFSTDYETHEFHLPSGVKSLNVQKASTERITSNATSDLNIKVDGRAIVRGNEGVFIMGKTIEFHMGGNMELKAENSIILNGSVMVSTTRLPSSSSGDQLGSGDWVRYKLCMCADGTLFKVQVTSQNMGCQISDNPCGNTH [F110Y]  -0.99
11. MAAAAAAAAEQQSSNGPVKKSMREKAVERRSVNKEHNSNFKAGYIPIDEDRLHKTGLRGRKGNLAICVIILLFILAVINLIITLVIWAVIRIGPNGCDSMEFHESGLLRNKQVSDMGVIHPLYKSTVGGRRNENLVITGNNQPIVFQQGTTKLSVENNKTSITSDIGMQFFDPRTQNILFSTDYETHEFHLPSGVKSLNVQKASTERITSNATSDLNIKVDGRAIVRGNEGVFIMGKTIEFHMGGNMELKAENSIILNGSVMVSTTRLPSSSSGDQLGSGDWVRYKLCMCADGTLFKVQVTSQNMGCQISDNPCGNTH [F110N]  -0.99
12. MAAAAAAAAEQQSSNGPVKKSMREKAVERRSVNKEHNSNFKAGYIPIDEDRLHKTGLRGRKGNLAICVIILLFILAVINLIITLVIWAVIRIGPNGCDSMEFHESGLLRFAQVSDMGVIHPLYKSTVGGRRNENLVITGNNQPIVFQQGTTKLSVENNKTSITSDIGMQFFDPRTQNILFSTDYETHEFHLPSGVKSLNVQKASTERITSNATSDLNIKVDGRAIVRGNEGVFIMGKTIEFHMGGNMELKAENSIILNGSVMVSTTRLPSSSSGDQLGSGDWVRYKLCMCADGTLFKVQVTSQNMGCQISDNPCGNTH [K111A]  -1.04
13. MAAAAAAAAEQQSSNGPVKKSMREKAVERRSVNKEHNSNFKAGYIPIDEDRLHKTGLRGRKGNLAICVIILLFILAVINLIITLVIWAVIRIGPNGCDSMEFHESGLLRRKQVSDMGVIHPLYKSTVGGRRNENLVITGNNQPIVFQQGTTKLSVENNKTSITSDIGMQFFDPRTQNILFSTDYETHEFHLPSGVKSLNVQKASTERITSNATSDLNIKVDGRAIVRGNEGVFIMGKTIEFHMGGNMELKAENSIILNGSVMVSTTRLPSSSSGDQLGSGDWVRYKLCMCADGTLFKVQVTSQNMGCQISDNPCGNTH [F110R]  -1.05
14. MAAAAAAAAEQQSSNGPVKKSMREKAVERRSVNKEHNSNFKAGYIPIDEDRLHKTGLRGRKGNLAICVIILLFILAVINLIITLVIWAVIRIGPNGCDSMEFHESGLLRQKQVSDMGVIHPLYKSTVGGRRNENLVITGNNQPIVFQQGTTKLSVENNKTSITSDIGMQFFDPRTQNILFSTDYETHEFHLPSGVKSLNVQKASTERITSNATSDLNIKVDGRAIVRGNEGVFIMGKTIEFHMGGNMELKAENSIILNGSVMVSTTRLPSSSSGDQLGSGDWVRYKLCMCADGTLFKVQVTSQNMGCQISDNPCGNTH [F110Q]  -1.06
15. MAAAAAAAAEQQSSNGPVKKSMREKAVERRSVNKEHNSNFKAGYIPIDEDRLHKTGLRGRKGNLAICVIILLFILAVINLIITLVIWAVIRIGPNGCDSMEFHESGLLRWKQVSDMGVIHPLYKSTVGGRRNENLVITGNNQPIVFQQGTTKLSVENNKTSITSDIGMQFFDPRTQNILFSTDYETHEFHLPSGVKSLNVQKASTERITSNATSDLNIKVDGRAIVRGNEGVFIMGKTIEFHMGGNMELKAENSIILNGSVMVSTTRLPSSSSGDQLGSGDWVRYKLCMCADGTLFKVQVTSQNMGCQISDNPCGNTH [F110W]  -1.08
16. MAAAAAAAAEQQSSNGPVKKSMREKAVERRSVNKEHNSNFKAGYIPIDEDRLHKTGLRGRKGNLAICVIILLFILAVINLIITLVIWAVIRIGPNGCDSMEFHESGLLRTKQVSDMGVIHPLYKSTVGGRRNENLVITGNNQPIVFQQGTTKLSVENNKTSITSDIGMQFFDPRTQNILFSTDYETHEFHLPSGVKSLNVQKASTERITSNATSDLNIKVDGRAIVRGNEGVFIMGKTIEFHMGGNMELKAENSIILNGSVMVSTTRLPSSSSGDQLGSGDWVRYKLCMCADGTLFKVQVTSQNMGCQISDNPCGNTH [F110T]  -1.1
17. MAAAAAAAAEQQSSNGPVKKSMREKAVERRSVNKEHNSNFKAGYIPIDEDRLHKTGLRGRKGNLAICVIILLFILAVINLIITLVIWAVIRIGPNGCDSMEFHESGLLRGKQVSDMGVIHPLYKSTVGGRRNENLVITGNNQPIVFQQGTTKLSVENNKTSITSDIGMQFFDPRTQNILFSTDYETHEFHLPSGVKSLNVQKASTERITSNATSDLNIKVDGRAIVRGNEGVFIMGKTIEFHMGGNMELKAENSIILNGSVMVSTTRLPSSSSGDQLGSGDWVRYKLCMCADGTLFKVQVTSQNMGCQISDNPCGNTH [F110G]  -1.18
18. MAAAAAAAAEQQSSNGPVKKSMREKAVERRSVNKEHNSNFKAGYIPIDEDRLHKTGLRGRKGNLAICVIILLFILAVINLIITLVIWAVIRIGPNGCDSMEFHESGLLRSKQVSDMGVIHPLYKSTVGGRRNENLVITGNNQPIVFQQGTTKLSVENNKTSITSDIGMQFFDPRTQNILFSTDYETHEFHLPSGVKSLNVQKASTERITSNATSDLNIKVDGRAIVRGNEGVFIMGKTIEFHMGGNMELKAENSIILNGSVMVSTTRLPSSSSGDQLGSGDWVRYKLCMCADGTLFKVQVTSQNMGCQISDNPCGNTH [F110S]  -1.18
19. MAAAAAAAAEQQSSNGPVKKSMREKAVERRSVNKEHNSNFKAGYIPIDEDRLHKTGLRGRKGNLAICVIILLFILAVINLIITLVIWAVIRIGPNGCDSMEFHESGLLRPKQVSDMGVIHPLYKSTVGGRRNENLVITGNNQPIVFQQGTTKLSVENNKTSITSDIGMQFFDPRTQNILFSTDYETHEFHLPSGVKSLNVQKASTERITSNATSDLNIKVDGRAIVRGNEGVFIMGKTIEFHMGGNMELKAENSIILNGSVMVSTTRLPSSSSGDQLGSGDWVRYKLCMCADGTLFKVQVTSQNMGCQISDNPCGNTH [F110P]  -1.35
